Measured values as given in article PMC4867596.

Columns and labels:
[1] = biological target: peroxisomal MAVS of Mefs MAVS-Pex cells (UniProt Q7Z434); assay: co-IP; Mefs MAVS-Pex cells transfected with vMIA-myc or myc-Miro1 for 24 h; precipitated with an antibody against MAVS and Dynabeads Protein G; blot for MAVS and myc; controls: non-transfected cells, Mefs MAVS-KO cells with vMIA-myc
[2] = biological target: Pex19-YFP (UniProt P40855); assay: co-IP; HFF cells transfected with vMIA-myc and Pex19-YFP for 24 h; precipitated with GFP antibody overnight at 4 °C and Dynabeads Protein G; blot for myc and GFP; control: cells with vMIA-myc alone
[3] = biological target: Pex19-YFP (UniProt P40855); assay: co-IP; HepG2 cells co-transfected with Pex19-YFP and vMIA-myc for 24 h; Pex19-YFP precipitated with GFP-Trap_M beads, 2 h at 4 °C; lysis in 10 mM Tris-HCl pH 7.5, 150 mM NaCl, 0.5 mM EDTA, 0.5% NP-40; blot for myc, Pex19 and GFP; control: cells with GFP and vMIA-myc
[4] = biological target: vMIA-myc (HCMV mitochondria-localized inhibitor of apoptosis, myc-tagged) (human cytomegalovirus); assay: co-IP; HFF cells transfected with vMIA-myc for 24 h; precipitated with myc antibody (2 h, 4 °C) and Protein G magnetic beads; blot for myc and endogenous Pex19; control: non-transfected cells
Sequence of vMIA-myc (HCMV mitochondria-localized inhibitor of apoptosis, myc-tagged) (human cytomegalovirus) (P16778 23-487): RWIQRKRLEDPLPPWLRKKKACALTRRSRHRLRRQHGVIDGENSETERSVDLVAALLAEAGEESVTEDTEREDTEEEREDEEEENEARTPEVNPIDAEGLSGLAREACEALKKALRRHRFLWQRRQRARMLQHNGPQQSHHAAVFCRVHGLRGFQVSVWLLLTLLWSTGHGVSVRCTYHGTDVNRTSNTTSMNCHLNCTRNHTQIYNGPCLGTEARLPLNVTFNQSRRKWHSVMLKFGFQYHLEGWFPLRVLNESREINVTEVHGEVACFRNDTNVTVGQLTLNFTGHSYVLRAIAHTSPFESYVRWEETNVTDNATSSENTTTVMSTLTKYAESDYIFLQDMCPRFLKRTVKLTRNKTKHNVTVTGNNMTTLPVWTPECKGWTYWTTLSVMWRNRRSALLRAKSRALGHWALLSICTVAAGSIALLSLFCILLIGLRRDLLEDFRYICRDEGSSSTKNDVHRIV

Sequence of UniProt Q7Z434 (Q7Z434 whole entry): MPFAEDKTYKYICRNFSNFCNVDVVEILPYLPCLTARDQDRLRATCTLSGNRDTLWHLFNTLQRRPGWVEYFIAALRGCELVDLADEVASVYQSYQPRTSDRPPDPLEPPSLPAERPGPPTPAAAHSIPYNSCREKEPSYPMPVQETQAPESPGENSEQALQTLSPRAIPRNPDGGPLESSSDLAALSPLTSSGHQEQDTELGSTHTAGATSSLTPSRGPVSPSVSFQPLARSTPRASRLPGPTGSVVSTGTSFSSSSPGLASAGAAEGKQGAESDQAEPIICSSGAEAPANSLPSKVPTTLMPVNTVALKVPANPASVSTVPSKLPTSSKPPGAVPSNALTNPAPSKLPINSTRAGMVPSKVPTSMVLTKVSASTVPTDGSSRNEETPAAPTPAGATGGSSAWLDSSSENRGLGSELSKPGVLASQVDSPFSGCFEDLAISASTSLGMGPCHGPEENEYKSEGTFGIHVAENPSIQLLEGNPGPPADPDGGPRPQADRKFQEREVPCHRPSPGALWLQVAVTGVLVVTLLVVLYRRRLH

Row | Molecule | fold increase of the IP band over the control [1] [fold] | fold increase of the IP band over the control [2] [fold] | fold increase of the IP band over the control [3] [fold] | fold increase of the IP band over the control [4] [fold]
1 | vMIA-myc (HCMV mitochondria-localized inhibitor of apoptosis, myc-tagged) (natural protein) | 18 | 5 | 7 | –
2 | endogenous Pex19 (natural protein) MAAAEEGCSVGAEADRELEELLESALDDFDKAKPSPAPPSTTTAPDASGPQKRSPGDTAKDALFASQEKFFQELFDSELASQATAEFEKAMKELAEEEPHLVEQFQKLSEAAGRVGSDMTSQQEFTSCLKETLSGLAKNATDLQNSSMSEEELTKAMEGLGMDEGDGEGNILPIMQSIMQNLLSKDVLYPSLKEITEKYPEWLQSHRESLPPEQFEKYQEQHSVMCKICEQFEAETPTDSETTQKARFEMVLDLMQQLQDLGHPPKELAGEMPPGLNFDLDALNLSGPPGASGEQCLIM | – | – | – | 3
